From patent US20150351390A1, “COMPOSITIONS AND METHODS FOR AUXIN-ANALOG CONJUGATION” (PIONEER HI-BRED INTERNATIONAL, INC., priority 2012, published 2015)

What was measured:
[1] = LC-MS assay of GH3 conjugation of 2,4-D with Asp or Glu; format: biochemical; conditions: for kcat (hrs−1) 2,4-D-Asp: conjugation of 2,4-D with Asp by recombinant GH3 protein, 2,4-D-Asp product by LC-MS; for kcat (hrs−1) 2,4-D-Asp / kcat (hrs−1) 2,4-D-Glu: 5 mM 2,4-D substrate; for kcat (hrs−1) 2,4-D-Glu: conjugation of 2,4-D with Glu by recombinant GH3 protein, 2,4-D-Glu product by LC-MS; for 2,4-D conjugation activity with Asp or Glu: result in words
How it was run: (§1)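 Rxn: 20 mM Tris-HCl pH 8.0, 5 mM MgCl2, 1 mM DTT, 5 mM ATP, 5 mM auxin, 5 mM Asp/Glu, 44–164 μg/mL purified His-GH3; 30° C., 3 h. MeOH quench, supernatant diluted 20×, LC-MS vs conjugate standards.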

[2] = LC-MS assay of GH3 conjugation of IAA with Asp or Glu; format: biochemical; conditions: for kcat (hrs−1) IAA-Asp: conjugation of IAA with Asp by recombinant GH3 protein, IAA-Asp product by LC-MS; for kcat (hrs−1) IAA-Glu: conjugation of IAA with Glu by recombinant GH3 protein, IAA-Glu product by LC-MS; for IAA conjugation activity with Asp or Glu: result in words
How it was run: as §1

Row | Molecule | kcat (hrs−1) 2,4-D-Asp [1] [h⁻¹] | kcat (hrs−1) 2,4-D-Glu [1] [h⁻¹] | 2,4-D conjugation activity with Asp or Glu [1] | kcat (hrs−1) IAA-Asp [2] [h⁻¹] | kcat (hrs−1) IAA-Glu [2] [h⁻¹] | IAA conjugation activity with Asp or Glu [2]
1 | AtGH3-14: GH3 protein, accession CAB87143 (protein, listed as Arabidopsis thaliana) MLPKFDPTDQKACLSLLEDVTTNVKQIQDSVLEAILSRNAHTEYLSGFLNGQADKKSFKKNVPVVTYEDIKPYIDRIANGEPSDLICDRPISVLLTSSGTSGGVPKLIPLTTEELEQRISFASLYRPLLYKYIEGIRERKSFMLYFVTRESETASGILVRTMITCVLKSVTPANSFIWDQSQISPHAITTCSDTTQSMYCQLLCGLLQRDNVGRLGAPFASSFLKIIKFLEDHWPEFCSNIRTGCLSDWITDPQCVSGIGKFLTAPNPELASLIEQECSQTSWEAIVKRLWPKAKCIEAIVTGTMAQYNPLLEFYSGGLPVISTFYGSSECFFGLNLNPLSKPNEVSYTIIPCMAYFEFLEVEKDYESGHDPAENPVVVDLVDVKIGHDYEPVVTTFAGLYRYRLGDVLRVTGFYNNAPQFHFVGRQKVVLSIDMDKTYDEDLLKAVTNASLLLEPHDLMLMDFTSRVDSSSYPGHYVLYWELGRKVKDAKLELDQNVLEECCFTIEESLDAVYRKGRKNDKNIGPLEIKVVKPGAFDKLMNFFLSRGSSVSQYKTPRSVTNEEALKILEANVVSEFLSQKTPSWELHELHSSR | 0.122 | 0.233 | 2,4-D conjugases | 0.000 | 0.000 | IAA-inactive
2 | AtGH3-13: GH3 protein, accession CAB86642 (protein, listed as Arabidopsis thaliana) MLPKFDLTDPKASLSLLEDVTTNVTQIQDSILEAVLSRNAHTEYLKGFLNGQVDKQTFKKNVPIVTYEDIKPYINRIANGEASDLICDRPISLLVMSSGTTAGIQNLIPLTTEDGEQRIMFGSLYRSLLYKYVEGIREGKSLTFYFVNPERETASGILIRTMITCILKSVNKTNSSLWDRLQISPHEISTCEDTTQSMYCQLLCGLLQRDNVARLGAPFASVFIRVIKYLEGHWQELCSNIRTGRLSDWITDPQCVSGISKFLTAPNPDLASLIEQECSKTSWEAIVKRLWPKAKCVEAVVTGSMAQYIPLLEFYGGGLPLISSWYGSSECFMGVNVNPLCKPSDVSYTIIPSMAYFEFLEVKKDQQEAGLDPIENHVVVDLVDVKIGHDYEPVVTTFSGLYRYRVGDLLRVTGFYNNSPHFRFVGRQKVVLSLHMANTYEEDLLKAVTNAKLLLEPHDLMLMEFTSRVDSSSFVGHYVLYWELGSKVKDAKLEPNRDVMEECCFTVEKYLDPLYRQERRKDKNIGPLEIKVVKPGAFDELMNFFLSRGSSVSQYKTPRSVKTEEAVKILEANVVSEFLSQETPPWG | 0.000 | 0.018 | 2,4-D conjugases | 0.000 | 0.000 | IAA-inactive
3 | OsGH3-11: GH3 protein, accession P0C0M3 (protein, listed as Oryza sativa) MDDHNLDYKGSGALEELEMLTVNAKEAQELILTKILERNQATEYLSKFMNGSTNISAFKRHVPVVTYDKVHPYILRIATGEESSILCGEYILELLRSSGTSRGEPRLMPSILKDLDRRTYLYSLIMPIMNKYISGLGEGKAMYLLFVKAETLTDSGIPVRSVLTSYYKSPHFLHRKHDLYNNYTSPDEVILCPDSQQSMYCQLLCGLVERQHVLRIGAVFASAFLRSISFLEQHWRDLVNDIRIGQLNSSITSPACRLAMLNFLALPNPELADQVEAICSCGSWKGILGRLWPNVKYIEAVLTGTMAQYIPMLEFYGGGAIPFVCTMYASSESYFGVNLSPLCSPADVSYTILPNMAYFEFIPLEDGLRLTDHEEVIENDKLVSLVDVKVGCYYELVVTTFSGLYRYRVGDVLQVTGFYNRAPQFKFICRRNVILSIDSDKTNEEDLHNSVTTAKKILENQNYLLLEYTSYTDISTVPGHYVLFWEIKSTHDERPAPLDAQLLESCCAAVEESLDYVYRRCRAHDRSIGPLEIRLVEAGAFDALMDLLVSHGSSINQYKTPRCIESSLALKLLNSKVIACFFSPQDPECGM | 0.000 | 0.043 | 2,4-D conjugases | 0.000 | 0.000 | IAA-inactive
4 | PtGH3-14: GH3 protein, accession EEE99364 (protein, listed as Populus trichocarpa) MTYDELDRNLEDLTKNAAHHQLQTLHSILQHQASVGYLQPYLSACHAPVDAATFRSQVPLSSYDDYFHLINQLANGDIDHHQPLLSADPLLCFFYSSGTSTMKPKLIPYFDSALSKAASYNAHQGSAAIFRNLVPPRPEVNKILWFLYADDAPTTRGGFKVMAASTYPLQGNKSRSNWSQTLSCISPREVVFGSNIKQQMYCHLLCALRSFDIIDGIRAAYAAGLIRAFSLLESKWEKLCDDLESGFPSLEIGDAAMKESVVEFLGGPQVDLSRRIREICAESNWGGILSKLWPNVRYVKSVTTGSMKQYYSKLKYYAGDVMILGGDYFASECCLGINLDIQQPPESTRFVMLPTTAYFEFLPFDLNESSVVGEETVDFSGVKVGKMYEVAVTTYRGLYRYRLGDIVRVVGFHNSSPLVEFVMRAPKTGYEIITEKDLMSAMESFQHSMAAEVVEFASFSDFELSPKRLKVFIEFREGCDFLQEEKLQGSVEALQRCCSSLENGLGEIYKVQKDRGEIGPLLVSVVRSGSFDGILQMAIKNGAPAGQYKPPKIIRNREIVDFMEESAVLTISLDSFHG | 0.000 | 0.015 | 2,4-D conjugases | 0.000 | 0.000 | IAA-inactive
5 | VvGH3-8: GH3 protein, accession XP_002271002 (protein, listed as Vitis vinifera) MADGEILKKLEDSTKDAVAVQLQTLHTILQRNGRSSYLQRYGASLDTGSFREAVPLSCYDDYADYIDRMADGGGGDDDGDRPLLSVDPLVCFFNSSGTSSMKPKLIPYFDSPPSKAASHIAHQGSVAILRRLFPPRQSINKVLWFLYAGNVTYTKGGFKAMAASAFPLQSNNKNPSPFLSTSASPREVILGSNVEQQMYCHILCGLRNLDFLDGIRAPYAVGLIRAFALLEFKWEQICEDLKCGFPSMEITDIAMRDSVTEVLAGPQLDLSKRIRTICEGKNWGGIVGKLWPNVRYIKCVCTGSMEQYYQKLKYYAGEIPVLGGDYFASECCVGINLDILQPPQLTRFVLLPTAAYFEFLPFTLDEEEIGDDAQETVDFSGVEVGKMYEIVVTTYRGFFRYRLGDVVRVVGFHNTSPEVEFVMRAPKTPAEILTERDLMTAMGNFQLVLRTVKMPDVTEFASFFDLDSIPKQLKIFLEVAGVLQDEKLQELGSVLRRNFSSLEDGLGGVYKLRKGRGEVGPLLVSIVKPGSFNRLLQMATENGAPASQYKPPKIIRNLEIVHFMEGSALLTVSFDSSD | 0.000 | 0.028 | 2,4-D conjugases | 0.000 | 0.000 | IAA-inactive
6 | PtGH3-9: GH3 protein, accession EEE81977 (protein, listed as Populus trichocarpa) MDGKKLEYKGWVALKEIERLTEKADEVQETILKAILMQNGETEYLSKYMKGSKDVDEFKFHVPVITYKDVCPYIQRIATGEDSSLVTGHPVTEMLCSSGTSAGEPKLMPSIAEDLDRRTFVYNLIMPIMNQYIFGLDEGKAMFLYFIKAEMSTPCGLPARTVLTSYYKSKHFKCRTRDAFNDFTSPDQAILCKDSNQSMYCQLLSGLVHRHQVLRLGAVFASAFLRAISFLERNWGRLCNDIRSGDLDPTITDPECRSCMSMLLTSPNPSLADEIEDICSNTSWKGILCHLWPRAKYIEAVVTGSMAQYIPSLEYYSEGKLPLVCTMYASSECYFGVNLKPLCDPADVAFTLLPNMCYFEFIHLGENGTWLVNKDEEGEVPNDKLVNLVNVRLGSYYELVVTTFAGLYRYRIGDVLRVTGFHNKAPQFQFICRRNVVLSIDNDKTNEEDLHKSITAAKKLLEPYDALLVEYTSYADTSSVPGHYVLYWEILHDASFPDSSAQLDVKLLQECCISVEEELDYVYRRCRAHDKSVGPLEIRVVESGTFEALMDFFIGQGASINQYKTPRSIKSNAALKLLNSHVKASAFSPRDPAWIP | 0.065 | 0.305 | – | 4.487 | 21.980 | –
7 | RcGH3-17: GH3 protein, accession XP_002531876 (protein, listed as Ricinus communis) MDGKKLEYKGEAALEEIEKLTEKADEVQESILREILIQNGQTEYLSKYIKGSKDVKEFKYCVPVTTYKDMYPYIQRIANGEDSSLITGRPITEMLCSSGTSAGEPKLMPSINEDLDRRTFIYNLVMPIMNQYISGLDEGKAMYLYFVKEEMSTPCGLPARTVLTSYYKSKHFKCRARDSFNDFTSPDQAILCKDSDQSMYCQLLSGLVYRHQVLRIGAVFASALLRAISFLERNWVHLCNDIRNGELDPMITDPECRSCMSMILSSPNPSLADEIEEICSRPSWKGILCLLWPRTKYIEAVVTGSMAQYVPSLKYYSERKLPLVCTMYASSECYFGVNLKPLSDPAEVSFTLMPNMCYFEFIPLGENGTLLMDVDEEEKVPIHKLVDLVHVRRGCYYELVVTTFAGLYRYRIGDVLQVTGFHNQAPQFRFICRRNVVLSIDNDKTNEEDLHKSISTAKKLLEPYNAILVEYTSYAETLVVPGHYVLYWEILHHSSVVNHNQTPLDAEVFQECCIAVEEELDYIYRRCRTHDKSIGPLEIRVVEPGTFEALMDLFIGQGGSINQYKTPRCIKSNAALMLLNSHVKASFFSARDPVWIP | 0.000 | 0.027 | – | 4.366 | 10.433 | –
